EC50 and Kd data for 2 molecules are collected here from patent US20220089698A1 (published 2022).

Some targets named below: HIV gp120 Bal (HIV-1); HIV gp120 CAAN (HIV-1); HIV gp120 REJO (HIV-1).
A further test has as its target T1, Cyno FcγRIIB (cynomolgus macaque, UniProt A0A140HDN4 43-217).
T1 construct: also called cynomolgus macaque FcγRIIB
T1 sequence: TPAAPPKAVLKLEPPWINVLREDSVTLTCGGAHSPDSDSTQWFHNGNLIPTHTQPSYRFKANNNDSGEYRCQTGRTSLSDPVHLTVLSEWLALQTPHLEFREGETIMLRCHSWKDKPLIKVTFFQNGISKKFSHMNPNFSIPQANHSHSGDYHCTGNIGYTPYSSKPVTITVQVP
The test is described as follows: SPR (Biacore 4000), antibody amine coupled to CM4 chip, receptor as analyte, steady-state fit. (In SPR one partner is held on a chip, and binding of the other changes the refractive index at the surface.)

The next test addresses T2, Cyno FcγRIIA (cynomolgus macaque, UniProt A0A140HDM9 28-216).
T2 construct: also called cynomolgus macaque FcγRIIA
T2 sequence: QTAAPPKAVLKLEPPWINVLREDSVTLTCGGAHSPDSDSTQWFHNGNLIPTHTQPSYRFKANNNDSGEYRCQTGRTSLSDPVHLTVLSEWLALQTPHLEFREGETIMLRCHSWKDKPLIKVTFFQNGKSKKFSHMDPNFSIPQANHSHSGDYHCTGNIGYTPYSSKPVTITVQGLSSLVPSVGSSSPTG
The test is described as above.

Changes are numbered by the printed parent chain.

Procedure for Cyno FcγRIIA: (§1) The in vitro binding dissociation constants (KD) of selected antibodies described herein for human and cynomolgus macaque (cyno) Fc binding receptors (FcγRs, FcRn) were determined using the Biacore 4000 surface plasmon resonace (SPR) biosensor, and either C1 or CM4 sensor chips (GE Healthcare).
(§2) To determine cynomolgus macaque FcγRIIA, FcγRIIB, FcγRIII and FcγRI binding affinities each test antibody was amine coupled to a CM4 sensor chip at two densities (about 100 RU and about 800 RU). Cyno FcγRIIA and FcγRIIB were tested in a two-fold concentration series up to 1 μM. FcγRIII was tested in a two-fold concentration up to 500 nM. Cyno FcγRT was tested for binding using a two-step titration (3 nM and 30 nM). The response data for FcγRIIA, FcγRIIB, FcγRIII at steady-state were fit to a simple binding isotherm. Responses for FcγRI were fit to a simple kinetic model.
Procedure for Cyno FcγRIIB: as §1, §2

B1: Antibody 1.52.64-1 (antibody, human IgG1, kappa)
heavy: QVQLLQSGAAVTKPGASVRVSCEASGYNIRDYFIHWWRQAPGQGLQWVGWINPKTGQPNNPRQFQGRVSLTRHASFDFDTFSFYMDLKALRSDDTAVYFCARQRSDYWDFDVWGSGTQVTVSSASTKGPSVFPLAPSSKSTSGGTAALGCLVKDYFPEPVTVSWNSGALTSGVHTFPAVLQSSGLYSLSSVVTVPSSSLGTQTYICNVNHKPSNTKVDKKVEPKSCDKTHTCPPCPAPELLAGPDVFLFPPKPKDTLMISRTPEVTCVVVDVSHEDPEVKFNWYVDGVEVHNAKTKPREEQYNSTYRVVSVLTVLHQDWLNGKEYKCKVSNKALPLPEEKTISKAKGQPREPQVYTLPPSREEMTKNQVSLTCLVKGFYPSDIAVEWESNGQPENNYKTTPPVLDSDGSFFLYSKLTVDKSRWQQGNVFSCSVLHEALHSHYTQKSLSLSPGK
light: DIQMTQSPSSLSASVGDTATITCQANGYLNWYQQRRGKAPKLLIYDGSKLERGVPSRFSGRRWGQEYNLTINNLQPEDIATYFCQVYEFVVPGTRLDLKRTVAAPSVFIFPPSDEQLKSGTASVVCLLNNFYPREAKVQWKVDNALQSGNSQESVTEQDSKDSTYSLSSTLTLSKADYEKHKVYACEVTHQGLSSPVTKSFNRGEC
As for B1, the results for the EC50 in the test with HIV gp120 Bal, with HIV gp120 CAAN and in the test with HIV gp120 REJO were 0.07 nM, 3.79 nM and 4.02 nM, respectively. The Kd (usually the equilibrium constant for the complex coming apart) with Cyno FcγRIIB amounted to 280 nM; with Cyno FcγRIIA, 1180 nM.

B2: Antibody A (antibody, human IgG1, kappa)
heavy: not shown
light: B1 light with A19V
On to B2, for which the concentration for a half-maximal effect (EC50) (commonly the midpoint of the concentration-response curve) was 0.05 nM in the test with HIV gp120 Bal, 1.84 nM with HIV gp120 CAAN and 2.21 nM with HIV gp120 REJO. Moreover, the Kd worked out at 895 nM in the test with Cyno FcγRIIB and 2000 nM in the test with Cyno FcγRIIA.
